Source: paper PMC8241838, “Structural mechanism of laminin recognition by integrin” (Nature Communications, 2021)

Experiments:
[1] = target: α6β1 integrin on Expi293F cells, α6 D153A (human, UniProt P05556 21-798, Mn2+; A cytoplasmic form assumed); assay: flow cytometry on cells; Expi293F cells transiently expressing α6 (wild type or mutant) with β1, in HBS-BSA with 0.5 mM MnCl2, varying concentrations of sfGFP-tLM511, room temperature 2 h, no washing; non-transfected cells as baseline; conditions: one partner purified
[2] = target: α6β1 integrin on Expi293F cells, α6 R157A (human, UniProt P05556 21-798, Mn2+; A cytoplasmic form assumed); assay: as above; conditions: one partner purified
Sequence of α6β1 integrin on Expi293F cells, α6 R157A (chain, as listed by the source R157A, chain 1 of 2): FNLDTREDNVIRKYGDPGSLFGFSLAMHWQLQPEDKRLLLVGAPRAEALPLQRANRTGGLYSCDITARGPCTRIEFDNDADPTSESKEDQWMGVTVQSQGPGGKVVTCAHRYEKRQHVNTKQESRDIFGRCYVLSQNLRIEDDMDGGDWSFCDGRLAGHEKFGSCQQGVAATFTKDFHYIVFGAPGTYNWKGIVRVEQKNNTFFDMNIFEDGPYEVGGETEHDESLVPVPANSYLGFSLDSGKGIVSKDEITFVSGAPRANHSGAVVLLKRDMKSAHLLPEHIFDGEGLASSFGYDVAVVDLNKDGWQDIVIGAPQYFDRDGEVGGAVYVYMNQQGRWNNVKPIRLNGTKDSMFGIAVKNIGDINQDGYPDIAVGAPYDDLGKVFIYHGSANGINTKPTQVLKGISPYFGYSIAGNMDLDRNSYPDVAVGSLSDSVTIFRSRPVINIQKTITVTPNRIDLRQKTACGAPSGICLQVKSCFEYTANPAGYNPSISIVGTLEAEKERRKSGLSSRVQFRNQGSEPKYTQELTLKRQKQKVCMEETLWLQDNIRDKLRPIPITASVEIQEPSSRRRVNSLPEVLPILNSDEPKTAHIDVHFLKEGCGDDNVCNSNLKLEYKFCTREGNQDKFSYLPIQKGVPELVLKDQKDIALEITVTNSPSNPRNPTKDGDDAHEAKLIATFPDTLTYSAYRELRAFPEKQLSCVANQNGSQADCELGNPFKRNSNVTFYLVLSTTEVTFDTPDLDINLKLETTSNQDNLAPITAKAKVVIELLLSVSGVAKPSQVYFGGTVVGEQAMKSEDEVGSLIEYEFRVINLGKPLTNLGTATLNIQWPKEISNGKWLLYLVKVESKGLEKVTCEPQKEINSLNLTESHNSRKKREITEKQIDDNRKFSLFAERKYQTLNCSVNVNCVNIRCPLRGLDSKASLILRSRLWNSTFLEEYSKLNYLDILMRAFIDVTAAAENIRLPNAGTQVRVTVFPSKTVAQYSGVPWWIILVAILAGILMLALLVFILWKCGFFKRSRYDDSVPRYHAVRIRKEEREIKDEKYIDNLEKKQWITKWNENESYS
Sequence of α6β1 integrin on Expi293F cells, α6 R157A (P05556 21-798, chain 2 of 2): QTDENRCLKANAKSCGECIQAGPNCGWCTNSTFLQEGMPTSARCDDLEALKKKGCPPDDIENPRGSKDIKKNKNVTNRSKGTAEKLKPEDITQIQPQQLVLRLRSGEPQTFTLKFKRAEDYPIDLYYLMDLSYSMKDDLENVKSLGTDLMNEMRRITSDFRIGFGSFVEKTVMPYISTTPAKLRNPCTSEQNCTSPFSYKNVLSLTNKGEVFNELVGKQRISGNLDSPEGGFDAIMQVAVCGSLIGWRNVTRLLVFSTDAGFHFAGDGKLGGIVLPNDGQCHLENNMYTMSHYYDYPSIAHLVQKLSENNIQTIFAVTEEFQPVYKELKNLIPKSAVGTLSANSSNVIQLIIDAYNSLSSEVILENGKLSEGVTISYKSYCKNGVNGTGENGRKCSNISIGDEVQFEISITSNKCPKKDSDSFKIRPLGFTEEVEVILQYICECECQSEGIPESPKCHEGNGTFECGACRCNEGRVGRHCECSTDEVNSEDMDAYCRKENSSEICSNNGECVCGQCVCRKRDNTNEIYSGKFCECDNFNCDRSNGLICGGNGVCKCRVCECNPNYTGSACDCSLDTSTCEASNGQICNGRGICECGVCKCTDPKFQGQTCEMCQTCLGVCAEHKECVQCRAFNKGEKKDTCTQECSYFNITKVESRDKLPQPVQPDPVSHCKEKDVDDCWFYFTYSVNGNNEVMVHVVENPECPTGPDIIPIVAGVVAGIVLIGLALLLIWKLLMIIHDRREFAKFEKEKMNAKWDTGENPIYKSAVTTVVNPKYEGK

Sequence of α6β1 integrin on Expi293F cells, α6 D153A (chain, as listed by the source D153A, chain 1 of 2): as the sequence (chain, as listed by the source R157A, chain 1 of 2) above, with D153A, A157R counted along it
Sequence of α6β1 integrin on Expi293F cells, α6 D153A (P05556 21-798, chain 2 of 2): as the sequence (P05556 21-798, chain 2 of 2) above

- fold increase in KD over the wild type [1]: 3.6 fold
- fold increase in KD over the wild type [2]: 2.3 fold
B1: trimeric fusion protein PA-sfGFP-tLM511 (complex)
chain 1: ENVERWQGQYEGLRGQDLGQAVLDAGHSVSTLEKTLPQLLAKLSILENRGVHNASLALSASIGRVRELIAQARGAASKVKVPMKFNGRSGVQLRTPRDLADLAAYTALKFYLQGPEPEPGQGTEDRFVMYMGSRQATGDYMGVSLRDKKVHWVYQLGEAGPAVLSIDEDIGEQFAAVSLDRTLQFGHMSVTVERQMIQETKGDTVAPGAEGLLNLRPDDFVFYVGGYPSTFTPPPLLRFPGYRGCIEMDTLNEEVVSLYNFERTFQLDTAVDRPCARSKSTGDPWLTDGSYLDGTGFARISFDSQISTTKRFEQELRLVSYSGVLFFLKQQSQFLCLAVQEGSLVLLYDFGAGLKKAVPLQPPPPLTSASKAIQVFLLGGSRKRVLVRVERATVYSVEQDNDLELADAYYLGGVPPDQLPPSLRRLFPTGGSVRGCVKGIKALGKYVDLKRLNTTGVSAGCTADLLVGRAMTFHGHGFLRLALSNVAPLTGNVYSGFGFHSAQDSALLYYRASPDGLCQVSLQQGRVSLQLLRTEVKTQAGFADGAPHYVAFYSNATGVWLYVDDQLQQMKPHRGPPPELQPQPEGPPRLLLGGLPESGTIYNFSGCISNVFVQRLLGPQRVFDLQQNLGSVNVSTGCAPALQAQTPGLGPRGLQATARKASRRSRQPARHPA
chain 2: not shown
chain 3: DTVDLNKLNEIEGTLNKAKDEMKVSDLDRKVSDLENEAKKQEAAIMDYNRDIEEIMKDIRNLEDIRKTLPSGCFNTPSIEKP
notes: laminin α5 chain (tLMα5), human, residues E2655-A3327, numbered from the initiation Met; sfGFP inserted between the PA tag and tLMα5; laminin β1 chain (tLMβ1), human, residues D1714-L1786, numbered from the initiation Met; laminin γ1 chain (tLMγ1), human, residues D1528-P1609, numbered from the initiation Met; sfGFP gene: GenBank ASL68970.1; also called sfGFP-fused tLM511; fluorescent tLM511 …
